Measured values as given in article PMC11989750, “Mating Increases CHST10 Activity in Rat Oviductal Mucosa to Induce the Synthesis of HNK-1 Glycoproteins: Possible Role in Sperm–Oviduct Interactions” (International Journal of Molecular Sciences, 2025).

Assays:
[1] = substrate: O=C1OC(c2ccc(O)cc2)(c2ccc(O[C@@H]3O[C@H](C(=O)O)[C@@H](O)[C@H](O)[C@H]3O)cc2)c2ccccc21; test: malachite green phosphate assay coupled to phosphatase CP3, A620; assay type: biochemical, Homo sapiens; details: acceptor substrate, PAPS as donor, 37 °C, 20 min
[2] = substrate: [H][C@@]12CCc3cc(O[C@@H]4O[C@H](C(=O)O)[C@@H](O)[C@H](O)[C@H]4O)ccc3[C@@]1([H])CC[C@]1(C)[C@@H](O)CC[C@@]21[H]; test: as above; assay type: biochemical, Homo sapiens; details: acceptor substrate, PAPS as donor, 37 °C, 20 min

B1: human recombinant CHST10 (Homo sapiens) (protein)
chain: TFKDPDVYSAKQEFLFLTTMPEVRKLPEEKHIPEELKPTGKELPDSQLVQPLVYMERLELIRNVCRDDALKNLSHTPVSKFVLDRIFVCDKHKILFCQTPKVGNTQWKKVLIVLNGAFSSIEEIPENVVHDHEKNGLPRLSSFSDAEIQKRLKTYFKFFIVRDPFERLISAFKDKFVHNPRFEPWYRHEIAPGIIRKYRRNRTETRGIQFEDFVRYLGDPNHRWLDLQFGDHIIHWVTYVELCAPCEIMYSVIGHHETLEDDAPYILKEAGIDHLVSYPTIPPGITVYNRTKVEHYFLGISKRDIRRLYARFEGDFKLFGYQKPDFLLN
notes: commercial recombinant protein (R&D Systems 6140-ST)
B1 showed a Km [1] of 41.6 ± 2.4 µM and a Km [2] of 73.9 ± 5.4 µM.
